Laboratory results: US11319551B2, “Methods and compositions for PPO herbicide tolerance in plants” (Monsanto Technology LLC, priority 2015, dated 2022)
Numbering of substitutions follows the chain as printed.

B1: R2N90: microbial HemY protoporphyrinogen oxidase, SEQ ID NO:4 (protein, listed as Bacillus pumilus)
chain: MHDNQKHLVIIGGGITGLAAAFYLEKEVEEKGLPIQISLIEASPRLGGKIQTLYKDGYIIERGPDSFLERKVSGPQLAKDVGLSDQLVNNETGQAYVLVNEKLHPMPKGAVMGIPTQISPFITTGLFSVAGKARAAMDFVLPKSKQTEDQSLGEFFRRRVGDEVVENLIEPLLSGIYAGDIDRLSLMSTFPQFYQTEQQHRSLILGMKKSQQHAKAQQVTAKKQGQFQTINQGLQSLVEAVEGKLKLTTVYKGTKVKQIEKTDGGYGLQLDSGQTLFADSAIVTTPHQSIYSMFPKEAGLEYLHDMTSTSVATVALGFKDEDVHNEYDGTGFVISRNSDFSITACTWTNKKWPHTAPKGKTLLRAYVGKAGDESIVEQSDSQIVSIVLEDLKKIMDIKADPELTTVTRWKTSMPQYHVGHQKAISNMRETFKQSYPGVYITGAAFEGVGIPDCIDQGKAAISEAVSYLFS
B2: R2N100: microbial HemY protoporphyrinogen oxidase, SEQ ID NO:5 (protein, listed as Bacillus pumilus)
chain: B1 chain with K102T, Q199K, S236A, G243S, V250I, L268V, F277L, D320E, S381H

What was measured:
[1] = system: transgenic soybean plants; test: S-3100 tolerance of transformed soybean plantlets at five weeks; assay type: in vivo; set-up: key to Tolerance score to S-3100 at 5 weeks: 0 for poor tolerance, high damage, low green coloration; 1 for some tolerance, average damage, moderate green coloration; 2 for good tolerance, low damage, high green coloration; conditions: for tolerance to the PPO herbicide in high-throughput screening at five weeks: S-3100, over the constructs with different transit peptides; for Tolerance score to S-3100 at 5 weeks: day four post application
Procedure: The microbial HemY PPO enzymes were expressed in transgenic soybean plants, and the transgenic plants were analyzed for PPO herbicide tolerance. […] For plant transformation, the nucleotide sequences encoding the HemY PPO enzymes were codon optimized for dicot expression. This permitted the side-by-side comparison of the seven different HemY PPO enzymes with thirty-nine different targeting peptides using the same promoter and 3′UTR elements for gene expression
The plant transformation constructs were used to transform soybean excised embryos (germplasm A3555) using A. tumefaciens and standard methods known in the art. Four hundred explants were inoculated for each construct resulting in twelve containers per construct. A sterile PPO herbicide solution was used for herbicide tolerance testing. The herbicide solution consisted of 0.3 g of S-3100 in crop oil concentrate (5.0 mL) and 495 mL of deionized water. This was filtered through a 0.45 micron Nalgene® Rapid-Flow™ Tissue Culture Filter Unit and Surfactant-Free Cellulose Acetate membrane filter unit (VWR, Radnor, Pa., USA). The resulting sterile solution was shaken before application.
At five weeks post-transformation, four of the twelve plant containers per construct were sprayed with two passes of the sterile PPO herbicide solution. The treated plantlets were then enclosed in the container and received at least 15 hours of light exposure post spray each day for four days. At the end of day four post application of S-3100, the treated plantlets were photographed and scored on a visual scale of green coloration (green coloration was representative of healthy photosynthetic plant tissue as compared to photo-bleached tissue) versus damage. The scoring values were 0 for poor tolerance, high damage, low green coloration; 1 for some tolerance, average damage, moderate green coloration; and 2 for good tolerance, low damage, high green coloration. The results of herbicide application of S-3100 at five weeks is presented in Table 5, where n.d. indicates the analysis was not conducted.

[2] = PPO enzyme assay, apparent Km for substrate; assay type: biochemical; conditions: substrate protoporphyrinogen
[3] = system: hemG knockout E. coli strain; assay type: cell-based; conditions: acifluorfen and S-3100

Row | Molecule | tolerance to the PPO herbicide in high-throughput screening at five weeks [1] | Tolerance score to S-3100 at 5 weeks ([1]; targeting peptide TP2) | Tolerance score to S-3100 at 5 weeks ([1]; targeting peptide TP5) | Tolerance score to S-3100 at 5 weeks ([1]; targeting peptide TP8) | Tolerance score to S-3100 at 5 weeks ([1]; targeting peptide TP10) | Tolerance score to S-3100 at 5 weeks ([1]; targeting peptide TP12) | Tolerance score to S-3100 at 5 weeks ([1]; targeting peptide TP14) | Tolerance score to S-3100 at 5 weeks ([1]; targeting peptide TP18) | Tolerance score to S-3100 at 5 weeks ([1]; targeting peptide TP19) | Tolerance score to S-3100 at 5 weeks ([1]; targeting peptide TP21) | Tolerance score to S-3100 at 5 weeks ([1]; targeting peptide TP22) | Tolerance score to S-3100 at 5 weeks ([1]; targeting peptide TP23) | Tolerance score to S-3100 at 5 weeks ([1]; targeting peptide TP24) | Tolerance score to S-3100 at 5 weeks ([1]; targeting peptide TP27) | Tolerance score to S-3100 at 5 weeks ([1]; targeting peptide TP28) | Tolerance score to S-3100 at 5 weeks ([1]; targeting peptide TP29) | Tolerance score to S-3100 at 5 weeks ([1]; targeting peptide TP30) | Tolerance score to S-3100 at 5 weeks ([1]; targeting peptide TP31) | Tolerance score to S-3100 at 5 weeks ([1]; targeting peptide TP32) | Tolerance score to S-3100 at 5 weeks ([1]; targeting peptide TP33) | further results
1 | B1 | did not provide tolerance | 0 | 0 | 1 | 0 | 1 | 0 | 1 | 1 | 1 | 0 | 1 | 0 | 0 | 0 | 0 | 0 | 0 | 0 | 0 | Tolerance score to S-3100 at 5 weeks ([1]; targeting peptide TP9): 1; Tolerance score to S-3100 at 5 weeks ([1]; targeting peptide TP13): 0; Tolerance score to S-3100 at 5 weeks ([1]; targeting peptide TP16): 0; Tolerance score to S-3100 at 5 weeks ([1]; targeting peptide TP20): 0; Km [2]: 2.8 µM; growth rate of hemG knockout E. coli strain in presence of PPO herbicide [3]: slower; tolerance to acifluorfen and S-3100 compared with strain containing R2N30 or R2N40 [3]: much better
2 | B2 | did not provide tolerance | 0 | 0 | 1 | 1 | 0 | 1 | 1 | 1 | 0 | 0 | 0 | 0 | 0 | 1 | 0 | 0 | 1 | 0 | 0 | Tolerance score to S-3100 at 5 weeks ([1]; targeting peptide TP1): 0; Tolerance score to S-3100 at 5 weeks ([1]; targeting peptide TP3): 0; Tolerance score to S-3100 at 5 weeks ([1]; targeting peptide TP4): 0; Tolerance score to S-3100 at 5 weeks ([1]; targeting peptide TP6): 0; Tolerance score to S-3100 at 5 weeks ([1]; targeting peptide TP15): 0; Tolerance score to S-3100 at 5 weeks ([1]; targeting peptide TP17): 0; Tolerance score to S-3100 at 5 weeks ([1]; targeting peptide TP25): 0; Tolerance score to S-3100 at 5 weeks ([1]; targeting peptide TP26): 1; Tolerance score to S-3100 at 5 weeks ([1]; targeting peptide TP36): 0; Tolerance score to S-3100 at 5 weeks ([1]; targeting peptide TP37): 0; Km [2]: 0.4 µM; growth rate of hemG knockout E. coli strain in presence of PPO herbicide [3]: slower; tolerance to acifluorfen and S-3100 compared with strain containing R2N30 or R2N40 [3]: much better
